Test results: paper PMC9668162

Target: PAM1.4 Fab (human) (UniProt P01834)
Experiment: ELISA

Substance: recombinant full-length VAR2CSA (variant FCR3), full ectodomain (domain or fragment)
- Kd: 12 nM
